Measurements as given in article PMC8249405, “Xanthomonas effector XopR hijacks host actin cytoskeleton via complex coacervation” (Nature Communications, 2021).

Legend:
[1] = biological target: the molecule itself; assay: SEC; Superdex 200 Increase 10/300, 150 mM NaCl, against protein standards
[2] = biological target: G-actin (monomeric Ca2+-ATP-actin from rabbit skeleton muscle) (rabbit, UniProt P68135 1-377); assay: MST; peptides serially diluted and titrated into 10 uM LatB-actin; 50 mM Tris pH 7.4, 150 mM NaCl, 0.05% Tween 20; 22 °C; called label-free in the results; conditions: both partners purified
[3] = biological target: F-actin (filaments assembled from rabbit skeleton muscle actin) (rabbit, UniProt P68135 1-377); assay: co-sedimentation; high speed (100,000 x g, 20 min, 25 °C); 2 uM F-actin with a range of concentrations of the MBP-msfGFP fusion; SDS-PAGE; Hill fit; conditions: both partners purified

Binder | Kd [2] | Kd [3] | other results
Xcc XopR-FL (aa 1-411) (natural protein, type III effector XopR of Xanthomonas campestris pv. campestris (Xcc) strain 8004, aa 1-411; The methods list a C-terminal His6-Flag form and a C-terminal mRuby2-His6-Flag form; also called full-length XopR; XopR full-length; source: E. coli BL21 (DE3) Rosetta, purified (HisTrap, gel filtration)) MRLSQLFNSRHRVAPEPHGANPNKTTPLIPGASPQHPLSQAPKSTTSQGASKSHRGMLASARKSLASLRKQLPLTCMGSSPTLETVESPPAHTAAVTPGRTQQQHGTQARVDQRWQPPVPNATDHERVQRPQPQPQQTPPTRQSMSVPPKPARAQQLHGPQRPVDPRMQPPIPERMRRDEGQPPQHDKPASPPVPITPAQSSLPSPRPQPGRQPSLRRLDLQLEEITRQCSDIQKQLFMEDREATPQEQHLLKTRAALIAWRNEVRDSQLEALLVALAPMEDIRAPRTTSSGLAMVQMDAMQHNRREVLKARRKSVDRAALARNYARAQRRLESLKQGDAPKEQIRRLQRMMQGYQNMLALEQIVRSTDDQLERLGAPRLMSGIPTTAEQRRQSFEKERDAHQEAIDNGYY | – | – | stoichiometry N [1]: 3
SLRRLDLQLEEITRQCSDIQKQLFMEDRE (XopR of Xcc, HH motif (extended helix and WH2 alpha-helix); also called CC; CC peptide; source: synthetic peptide (GL Biochem)) [HH peptide] | 73.9 ± 63 µM | – | –
SLRRLDLQLEEITRQCSDIQKQLFMEDRE (domain or fragment, XopR of Xcc, HH motif; also called chimeric protein HH; source: E. coli BL21 (DE3) Rosetta, purified; not shown: MBP, N-terminal, kept; msfGFP, C-terminal, kept) [MBP-HH-msfGFP] | – | 1.27 ± 0.05 µM | –
QCSDIQKQLFMEDREATPQEQHLLKTRAA (XopR of Xcc, WH2-like motif without the extended helix; source: synthetic peptide (GL Biochem)) [WH2 peptide] | > 100 µM | – | –
SLRRLDLQLEEITRQCSDIQKQLFMEDREATPQEQHLLKTRAA (XopR of Xcc, extended helix plus WH2-like motif; also called CCWH2; source: synthetic peptide (GL Biochem)) [EHWH2 peptide] | 16.5 ± 4.53 µM | – | –
SLRRLDLQLEEITRQCSDIQKQLFMEDREATPQEQHLLKTRAA (domain or fragment, XopR of Xcc, EHWH2 stretch; also called chimeric protein EHWH2; source: E. coli BL21 (DE3) Rosetta, purified; not shown: MBP, N-terminal, kept; msfGFP, C-terminal, kept) [MBP-EHWH2-msfGFP] | – | 1 ± 0.06 µM | –
